Experiment: yeast display, Sf9 membrane polyspecificity reagent, FACS + sequencing; frameworks hold sequencing errors
Outline: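 Using colony PCR, genes from sorted yeast display clones were amplified, then sequenced on MiSeq at 2 × 250 and filtered by CDR length. The clones had been stained with 10% biotinylated, detergent-solubilized Sf9 membrane reagent for 1 hour at 4 °C and sorted by FACS into low and high (top ~1%) gates on anti-HA and streptavidin fluorescence. Polyreactivity labels come from the gate of origin.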

Sequence | polyreactivity (PSR sort gate)
QVQLVESGGGLVQAGGSLRLSCAASGFIFAYYAMGWYRQAPGKERELVAAITNSGGSTYYADSVKGRFTISRDNAKNTVYLQMNSLKPEDTAVYYCAAVIRPRYYQVRPRYDYWGQGTQVTVSS | low polyreactivity
QVQLVESGGGLVQAGGSLRLSCAASGFIFAYYAMGWYRQAPGKERELVAAITSSGGSTYYADSVKGRFTISRDNAKHTVYLQMNSLKPEDTAVYYCNAVPRHYKGYYWGQGTQVTVSS | high polyreactivity
QVQLVESGGGLVQAGGSLRLSCAASGFIFCINAMGWYRQAPGKERELVAAISRSGGRTYYADSVKGRFTISRDNAKNTVYLQMNSLKPEDTAVYYCAADKASYTNYDGDYWGQGTQVTVSS | high polyreactivity
QVQLVESGGGLVQAGGSLRLSCAASGFIFDAYAMGWYRQAPGKERELVAGISIGGRTNYADSVKGRFTISRDNAKNTVYLQMNSLKPEDTAVYYCAARNYRYYYGSYYRGPITNYEYWGQGTQVTVSS | low polyreactivity
QVQLVESGGGLVQAGGSLRLSCAASGFIFDDNAMGWSRQAPGKDWELVAASTSGGGSTYYADSVKGRFTISRDNAKNTVYLQMTSLKPEDTAVYYCYAVPSQPDEFDYWGQGTQATVSS | low polyreactivity
QVQLVESGGGLVQAGGSLRLSCAASGFIFDDNAMGWYRQAPGKEREVVAAITSGGGSTYYADSVKGRFTISRDNAKNTVYLQMNSLKPEDTAVYYCNAVPSQHDEFDYWGQGTQVTVSS | low polyreactivity
QVQLVESGGGLVQAGGSLRLSCAASGFIFDEYAMGWYRQAPGKERELVAAISWSGSRTYYADSVKGRFTISRDNAKNTVYLQMNRLKPEDTSVYYCAKVTGVVAGRRNYWGQGTQVTVSS | low polyreactivity
QVQLVESGGGLVQAGGSLRLSCAASGFIFDGNAMGWYRQAPGKERELLAAISWDGGTYYADSVKGRFTISRDNAKNTVYLQMNSLKPEDTAVYYCNKPYGAETAHREFDYWGQGTQVTVSS | low polyreactivity
QVQLVESGGGLVQAGGSLRLSCAASGFIFDGYAMGWYRPAPGKERELVAAIDSGGDRTYYADSVKGRFTISRDNAKNTVYLQMNSLKPEDTAVYYCAADSSDPTGYDYWGQGTQVTVSS | low polyreactivity
QVQLVESGGGLVQAGGSLRLSCAASGFIFDIYAMGGYRPAPGKERELVAAISSGGSTNYADSVKGRFTISRDNAKNTVYLQMNSLKPEDTAVYYCAADRSDLAEEGYAGYDYWGQGTQVTVSS | low polyreactivity
QVQLVESGGGLVQAGGSLRLSCAASGFIFDKYAMGWYRQAPGKERELVATITSGGSTYYADSVKGRFTISRDNAKNTVYLQMNSLKPEDTAVYYCAALDYGYRWYRYYYWGQGTQVTVSS | high polyreactivity
QVQLVESGGGLVQAGGSLRLSCAASGFIFDKYVMGWYRQAPGKERELVAAISSGGSTYYADSVKGRFTISRDNAKNTVYLQMNSLKPEDTAVYYCNAGGFWPWVYGYDSWGQGTQVTVSS | high polyreactivity
QVQLVESGGGLVQAGGSLRLSCAASGFIFDRNTMGWYRQAPGKERELVAAISRSGGSTYYADSVKGRFTISRDNAKNTVYLQMNSLKPEDTAVYYCAALYYYRNRSYDYWGQGTQVTVSS | high polyreactivity
QVQLVESGGGLVQAGGSLRLSCAASGFIFDRYAMGWYRQAPGKERELVAAIDTASSTNYADSVKGRFTISRDNAKNTVYLQMNSLKPEDTGVYYCNASGYYYVIYWKVSNYNYWGQGTQVTVSS | low polyreactivity
QVQLVESGGGLVQAGGSLRLSCAASGFIFDSNVMGWYRQAPGKERELVATITNRGGRTYYADSVKGRFTISRDNAKNTVYLQMNSLKPEDTAVYYCNRRWIWTRDRGGYWGQGTQVTVSS | low polyreactivity
QVQLVESGGGLVQAGGSLRLSCAASGFIFDTYAMGWYRQAPGKERELVAAISYRGGSTYYADSVKGRFTISRDNAKNTVYLQMNSLKPEDTAVYYCNAYWRYSYFGRDYWGQGTQVTVSS | low polyreactivity
QVQLVESGGGLVQAGGSLRLSCAASGFIFDVNAMGWYRQAPGKERELVAAISRSGSSTYYADSVKGRFTISRDNAKNTVYFQMNSLKPEDTAVYYCAAEYYRNFYCSRGYWGQGTQVTVSS | high polyreactivity
QVQLVESGGGLVQAGGSLRLSCAASGFIFDYNVMGWYSQAPGKKGSWVAAISWSGGSTYYADSVKGRFTISRDNAKNTVYLEINSLKPEDTAVYYCSSRGTSTFRGTGRYDYWGQGTQVTVSS | high polyreactivity
QVQLVESGGGLVQAGGSLRLSCAASGFIFDYSAMGWYRQAPGKERELVAAISHSGGTTYYADSVKGRFTISRDKAKNTVYLQMNSLKPEDTAVYYCNALYRKDFNSEYDYWGPGTQVTVSS | high polyreactivity
QVQLVESGGGLVQAGGSLRLSCAASGFIFDYYGMGWYRQAPGKERELVAAITRGGSTYYADSVKGRFTISRDNAKNTVYLQMNSLKPEDTAFYYCAAKYVSQGYDYWGQGTQVTVSS | high polyreactivity
QVQLVESGGGLVQAGGSLRLSCAASGFIFEAYTMGWSRQAPGKERELVASIDWDGGSTYYADSVKGRFTISRDNAKNTVYLQMNSLKPEDTAVYYCAADSRQYDELGDYDYWGQGTQVTVSS | low polyreactivity

Sequence | polyreactivity (PSR sort gate)
QVQLVESGGGLVQAGGSLRLSCAASGFIFENNAKGWYRQAPGKERELVAGITSGGGSTYYADSVKGRFTISRDNAKNTVYLQMNSLKPEDTAVYYFNKLYTRVGFTFEYWGQGTQVNVSS | low polyreactivity
QVQLVESGGGLVQAGGSLRLSCAASGFIFERYAMGWYRKAPGKERELVAGIYSGGSTYYADSVKGRFTISRDNAKNTVYLQMNSLKPEDTAVYYCAAFRRQHIIYNYWGQGTQVTVSS | high polyreactivity
QVQLVESGGGLVQAGGSLRLSCAASGFIFESNAMGWYRQAPGKERELVAAISKRGGSTYYADSVKGRFTISRDNAKNTVYLQMNSLKPEDTAVYYCNKARGYYHPGYQYGLDYWGQGTQVTVSS | high polyreactivity
QVQLVESGGGLVQAGGSLRLSCAASGFIFEYNTMGWYRQAPGKERELVAAISRRGGSTYYADSVKGRFTISRDNAKNTVYLQMKSLKPEDTAVYYCATDPGARVHYPTGDYWGQGTQVTVSS | high polyreactivity
QVQLVESGGGLVQAGGSLRLSCAASGFIFFDNAMGWYRHAPGKETELVAVISSSGTSTYYADSVKGRFTISRDNAKNTVYLQMNSLKPEDTAVYYCNATARTGVYLESDYWGQGTQVTVSS | low polyreactivity
QVQLVESGGGLVQAGGSLRLSCAASGFIFFKYAMRWYRQAPGKEREFVAAISKSGTSTYYADSVKGRFTISRDNAKNTVYLQMNSLKPEDTAVYYCAARKDSYYYRSYDSWGQGTQVTVSS | high polyreactivity
QVQLVESGGGLVQAGGSLRLSCAASGFIFFQYAMGWYRPAPGKERELVAAISGSGVTTYYADSVKGRFTISRDNAKNTVYLQMNSLKPDDTAVYYCNAGSVSDRQMDYWGQGTQVTVSS | low polyreactivity
QVQLVESGGGLVQAGGSLRLSCAASGFIFFQYAMGWYRQAPGKERELVAAITARSGSTYYADSVKGRFTISRDNAKNTVYLQMNSLKPEDTAVYYCAARPRYYRWGPLDYWGQGTQVTVSS | high polyreactivity
QVQLVESGGGLVQAGGSLRLSCAASGFIFFRYDMGWYRQAPGKERELVAVITSSGSTNYADSVKGRFTISRDNAKNTVYLQMNSLKPEDTAVYYCNARVSGVYRRRVNYWGEGTQVTVSS | high polyreactivity
QVQLVESGGGLVQAGGSLRLSCAASGFIFFVNAMGWYRQAPGKEREFVATITGSGGSTYYADSVKGRFTISRDNAKNTVYLQMNSLKPEDTAVYYCAALGPYLDYGVQYGYWGQGTQVTVSS | low polyreactivity
QVQLVESGGGLVQAGGSLRLSCAASGFIFFYAMGWYRQAPGKERELVASIDSGVSTDYADSVKGRFTISRDNAKNTDYLQMNSLKTEDTAVYYCAADYRAPLEYWGQGTQVTVSS | low polyreactivity
QVQLVESGGGLVQAGGSLRLSCAASGFIFFYNAMGWYRQAPGKERELVADISSGGRTYYADSVKGRFTISRDNAKNTVYLQMNSLKPEDTAVYYCAAQSRYWVVRMDYWGQGTQVTVSS | high polyreactivity
QVQLVESGGGLVQAGGSLRLSCAASGFIFGAYAMGWYRQAPGKERELVAAISRRGGSTYYADSVKGRFTISRDNAKNTVYLQMNSLKPEDTAVYYCAADISGSYYRPQYDYWGQGTQVTVSS | low polyreactivity
QVQLVESGGGLVQAGGSLRLSCAASGFIFGAYAMGWYRQAPGKERELVAAITKSGGRTYYADSVKGRFTISRDNAKNTVYLQMNSLKPEDTAVYYCAAVTRYPGEYDYWGQGTQVTVSS | high polyreactivity
QVQLVESGGGLVQAGGSLRLSCAASGFIFGDYAMGWYRQAPGKERELVAAINYSGGSTYYADSVKGRFTISRDNAKNTVYLQMNSLKPEDTAVYYCAALIYGLVGWGQGTQVTVSS | low polyreactivity
QVQLVESGGGLVQAGGSLRLSCAASGFIFGGNAMGWYRQAPGKERELVAAVSWIAGSTHYADSVKGRFTISRDNAKNTVYLQMNSLKPEDTAVYYCAADHEGSLSRGFTETDYDYWGQGTQVTVSS | low polyreactivity
QVQLVESGGGLVQAGGSLRLSCAASGFIFGGNTMGWSRQAPGKERELVASITLSGGRTHYADSVKGRFTISRDNAKNTVYLQMNSLKPEDTAVYYCARSLASYLHAGDTEYNGSYWGQGTQVTVSS | low polyreactivity
QVQLVESGGGLVQAGGSLRLSCAASGFIFGGYAMGWYRQAHGKEREWVAAISRSGGSTYYADSVKGRFTISRDNAKNTVYLQMNSLKPEDTAVYYCNAVPRRQGFNYWGQGTQVTVSS | high polyreactivity
QVQLVESGGGLVQAGGSLRLSCAASGFIFGGYAMGWYRQAPGKERELVAAISRSGGSTYYADSVKGRFTISRDNEKNTVYLQMNSVKPEDTAVYYCNAVPRRQGFNYWGQCTQVTVSS | high polyreactivity
QVQLVESGGGLVQAGGSLRLSCAASGFIFGGYAMGWYRQAPGKERELVAAITGGGTTYYADSVKGRFTISRDNAKNTVYLQMNSLKPEDTAVYYCAAAYRLGYHKYYYWGQGTQVTVSS | high polyreactivity

Reference: the nanobody polyreactivity screen of Harvey et al. (2022)
